T1: Biotinylated human HIF-1a ODD peptide with Pro567 to Gly, not hydroxylated
T1 chain: DLDLEALAPYIGADDDFQL

T2: Biotin-Acp-DLDLEALAPYIPADDDFQL, human HIF-1a ODD peptide, wild type, not hydroxylated
T2 chain: DLDLEALAPYIPADDDFQL

T3: Biotinylated human HIF-1a ODD peptide with L562A, not hydroxylated
T3 chain: DLDLEAAAPYIPADDDFQL

T4: Biotinylated human HIF-1a ODD peptide with A563G, not hydroxylated
T4 chain: DLDLEALGPYIPADDDFQL

T5: Biotinylated human HIF-1a ODD peptide with Y565A, not hydroxylated
T5 chain: DLDLEALAPAIPADDDFQL


Key:
[1] = molecular target: T1, Biotinylated human HIF-1a ODD peptide …
[2] = molecular target: T2, Biotin-Acp-DLDLEALAPYIPADDDFQL, human …
[3] = molecular target: T3, Biotinylated human HIF-1a ODD peptide …
[4] = molecular target: T4, Biotinylated human HIF-1a ODD peptide …
[5] = molecular target: T5, Biotinylated human HIF-1a ODD peptide …

| Protein | prolyl hydroxylation of variant peptide substrates [1] | prolyl hydroxylase activity [2] | prolyl hydroxylation of variant peptide substrates [3] | prolyl hydroxylation of variant peptide substrates [4] | prolyl hydroxylation of variant peptide substrates [5] | prolyl hydroxylase activity, [^35S]-pVHL pull-down assay [2] |
| --- | --- | --- | --- | --- | --- | --- |
| recombinant human HPH 2 with amino-terminal MBP, purified from E. coli (protein) ANDSGGPGGPSPSERDRQYCELCGKMENLLRCSRCRSSFYCCKEHQRQDWKKHKLVCQGSEGALGHGVGPHQHSGPAPPAAVPPPRAGAREPRKAAARRDNASGDAAKGKVKAKPPADPAAAASPCRAAAGGQGSAVAAEAEPGKEEPPARSSLFQEKANLYPPSNTPGDALSPGGGLRPNGQTKPLPALKLALEYIVPCMNKHGICVVDDFLGKETGQQIGDEVRALHDTGKFTDGQLVSQKSDSSKDIRGDKITWIEGKEPGCETIGLLMSSMDDLIRHCNGKLGSYKINGRTKAMVACYPGNGTGYVRHVDNPNGDGRCVTCIYYLNKDWDAKVSGGILRIFPEGKAQFADIEPKFDRLLFFWSDRRNPHEVQPAYATRYAITVWYFDADERARAKVKYLTGEKGVRVELNKPSDSVGKDVF | a peptide containing a mutation of Pro^567 to glycine served as an equal, if not better, substrate for the human HPH enzymes | Purified HPH 2 was able to hydroxylate the HIF-1a peptide substrate | unable to modify peptides containing the L562A, A563G or Y565A mutations | unable to modify peptides containing the L562A, A563G or Y565A mutations | unable to modify peptides containing the L562A, A563G or Y565A mutations | – |
| human HPH 2 (splice variant) with carboxy-terminal V5-HIS tag, in vitro translated (protein) ANDSGGPGGPSPSERDRQYCELCGKMENLLRCSRCRSSFYCCKEHQRQDWKKHKLVCQGSEGALGHGVGPHQHSGPAPPAAVPPPRAGAREPRKAAARRDNASGDAAKGKVKAKPPADPAAAASPCRAAAGGQGSAVAAEAEPGKEEPPARSSLFQEKANLYPPSNTPGDALSPGGGLRPNGQTKPLPALKLALEYIVPCMNKHGICVVDDFLGKETGQQIGDEVRALHDTGKFTDGQLVSQKSDSSKDIRGDKITWIEGKEPGCETIGLLMSSMDDLIRHCNGKLGSYKINGRTKAMVACYPGNGTGYVRHVDNPNGDGRCVTCIYYLNKDWDAKVSGGILRIFPEGKAQFADIEPKFDRLLFFWSDRRNPHEVQPAYATRYAITVWYFDADERARAKVKYLTGEKGVRVELNKPSDSVGKDVF | – | – | – | – | – | both of these enzymes were observed to catalyze the hydroxylation of the key proline residue in the HIF-1a peptide substrate |
| human HPH 1 H196A with carboxy-terminal V5-HIS tag (protein) MPLGHIMRLDLEKIALEYIVPCLHEVGFCYLDNFLGEVVGDCVLERVKQLHCTGALRDGQLAGPRAGVSKRHLRGDQITWIGGNEEGCEAISFLLSLIDRLVLYCGSRLGKYYVKERSKAMVACYPGNGTGYVRHVDNPNGDGRCITCIYYLNKNWDAKLHGGILRIFPEGKSFIADVEPIFDRLLFFWSDRRNPAEVQPSYATRYAMTVWYFDAEERAEAKKKFRNLTRKTESALTED | – | Each of these mutations eliminated the prolyl hydroxylase activity of the native HPH 1 enzyme | – | – | – | – |
| human HIF prolyl hydroxylase 1 (HPH 1) with carboxy-terminal V5-HIS tag (protein) MPLGHIMRLDLEKIALEYIVPCLHEVGFCYLDNFLGEVVGDCVLERVKQLHCTGALRDGQLAGPRAGVSKRHLRGDQITWIGGNEEGCEAISFLLSLIDRLVLYCGSRLGKYYVKERSKAMVACYPGNGTGYVRHVDNPNGDGRCITCIYYLNKNWDAKLHGGILRIFPEGKSFIADVEPIFDRLLFFWSDRRNPHEVQPSYATRYAMTVWYFDAEERAEAKKKFRNLTRKTESALTED | a peptide containing a mutation of Pro^567 to glycine served as an equal, if not better, substrate for the human HPH enzymes | – | unable to modify peptides containing the L562A, A563G or Y565A mutations | unable to modify peptides containing the L562A, A563G or Y565A mutations | unable to modify peptides containing the L562A, A563G or Y565A mutations | Of the five candidate enzymes assayed, only one, HPH-1, was able to enhance pVHL association with the biotinylated peptide |
| human HPH 1 D137A with carboxy-terminal V5-HIS tag (protein) MPLGHIMRLDLEKIALEYIVPCLHEVGFCYLDNFLGEVVGDCVLERVKQLHCTGALRDGQLAGPRAGVSKRHLRGDQITWIGGNEEGCEAISFLLSLIDRLVLYCGSRLGKYYVKERSKAMVACYPGNGTGYVRHVANPNGDGRCITCIYYLNKNWDAKLHGGILRIFPEGKSFIADVEPIFDRLLFFWSDRRNPHEVQPSYATRYAMTVWYFDAEERAEAKKKFRNLTRKTESALTED | – | Each of these mutations eliminated the prolyl hydroxylase activity of the native HPH 1 enzyme | – | – | – | – |
| human HPH 1 H135A with carboxy-terminal V5-HIS tag (protein) MPLGHIMRLDLEKIALEYIVPCLHEVGFCYLDNFLGEVVGDCVLERVKQLHCTGALRDGQLAGPRAGVSKRHLRGDQITWIGGNEEGCEAISFLLSLIDRLVLYCGSRLGKYYVKERSKAMVACYPGNGTGYVRAVDNPNGDGRCITCIYYLNKNWDAKLHGGILRIFPEGKSFIADVEPIFDRLLFFWSDRRNPHEVQPSYATRYAMTVWYFDAEERAEAKKKFRNLTRKTESALTED | – | Each of these mutations eliminated the prolyl hydroxylase activity of the native HPH 1 enzyme | – | – | – | – |

— US6566088
